Results reported in patent publication US10745731B2, “Recombinant production method” (Hoffmann-La Roche Inc., priority 2015, dated 2020).

B1: Flagellin: Flagellin from Salmonella typhimurium, TLR5 agonist, NFκB activator (protein, UniProt P06179 2-495, looked up)
Flagellin: AQVINTNSLSLLTQNNLNKSQSALGTAIERLSSGLRINSAKDDAAGQAIANRFTANIKGLTQASRNANDGISIAQTTEGALNEINNNLQRVRELAVQSANSTNSQSDLDSIQAEITQRLNEIDRVSGQTQFNGVKVLAQDNTLTIQVGANDGETIDIDLKQINSQTLGLDTLNVQQKYKVSDTAATVTGYADTTIALDNSTFKASATGLGGTDQKIDGDLKFDDTTGKYYAKVTVTGGTGKDGYYEVSVDKTNGEVTLAGGATSPLTGGLPATATEDVKNVQVANADLTEAKAALTAAGVTGTASVVKMSYTDNNGKTIDGGLAVKVGDDYYSATQNKDGSISINTTKYTADDGTSKTALNKLGGADGKTEVVSIGGKTYAASKAEGHNFKAQPDLAEAAATTTENPLQKIDAALAQVDTLRSDLGAVQNRFNSAITNLGNTVNNLTSARSRIEDSDYATEVSNMSRAQILQQAGTSVLAQANQVPQNVLSLLR

Assays:
HEK293F cells [1] = format: cell-based
Description: (§1) To determine cell viability and viable cell density (VCD) 1 mL cultivation medium (cell suspension) was transferred into a Cedex low fouling sample cup. The cup was placed into a Vicell instrument (Beckman Coulter). The instrument mixes cells with trypan blue to stain dead cells. After analysis of 50 images VCD was calculated and viability was determined by calculation of the percentage of viable cell number in relation to the total cell number.

HEK293F cells [2] = assay: Transient gene expression in HEK293F cells: cell specific productivity of the expressed antibody; format: cell-based, human
Description: HEK293F cells were cultivated in F17 medium (Life Technologies) in shaker flasks at 36.5° C., 7.0% CO2 and 80% humidity in a shaker incubator (Kuhner, Mytron). Cells were split every three to four days and were cultivated no longer than five weeks. To avoid overgrowth and to keep them in the exponential phase of growth, viable cell densities (VCD) never exceeded 60*10^5 cells/mL.
(§2) Transient gene expression is a 5-7 days lasting procedure. The standard operating procedure of this expression system is applicable to shaker flasks with various volumes of cell culture ranging from 80 mL to 2 L. First, half of the cell culture volume is seeded at a viable cell density (VCD) of 8*10^5 cells/mL. After two days of cultivation, cells are split to a VCD of about 12*10^5 cells/mL. On the next day, cells are transfected with a polyethylene imine (PEI)-based transfection reagent at a VCD between 20*10^5 cells/mL and 25*10^5 cells/mL. 3 hours after transfection, the production enhancer (if any) is added. 24 h after transfection, a feeding solution and a glucose bolus is supplemented to avoid the limitation of nutrients. Depending on cell viability, which should not decrease below 50%, the supernatant is harvested five to seven days post transfection and subjected to antibody purification.
(§3) To compare transient gene expression rates always the same plasmids encoding for one distinct antibody were co-transfected.
(§4) To co-transfect two plasmids equimolarily, the ratio of the base pair number of one plasmid to the total base pair number was calculated and multiplied with the total amount of DNA (0.5 mg/L). Plasmid one has a size of 10530 bp and plasmid two has a size of 7184 bp and were solved in water to a final concentration of 1 mg/mL. For transfection of one liter cell culture, 297 μL of plasmid one and 203 μl of plasmid two were dissolved in 40 mL phosphate buffered saline (PBS) at room temperature. 1.25 mL JetPEI® solution was added and the solution was mixed well. After incubation for 10-15 min., the mixture was added to the cells. The cells were transfected in a batch containing the whole cell culture necessary for every experiment to avoid variance arising from different transfection efficiencies.
(§5) 80 mL of the transfected cell culture batch was added to a 125 ml shaker flask. For every experiment, two or three 125 mL shaker flasks were used as biological replicates and treated the same way. Three hours after transfection, cells were split into 125 mL shaker flasks and the cellular treatments with small molecules or ligands were started. Basal protein expression was determined by untreated control samples. To compare samples with the standard operating procedure, cells were also treated with VPA to a final concentration of 4 mM or 3 mM. VPA and its analogues were dissolved in double distilled water. […] Tumor necrosis factor (TNF) alpha was reconstituted with PBS supplemented with 0.1% BSA. Flagellin was dissolved in sterile double distilled water. The applied molecules were not added to the cultivation directly, but diluted in 16 mL medium pre-warmed to 36.5° C. and added to the cultivation thereafter.
(§6) 24 h after transfection a feeding solution at 36.5° C. and 3 mg/mL glucose were added to the cultivation.
as §1
(§7) Total concentration of the transiently expressed antibody was determined by a turbidimetric test. One mL cell suspension was transferred into an Eppendorf cup and centrifuged for 10 min. at 10,000 rpm (9,300 g).

HDAC = conditions: description from the literature; cited from earlier work
HEK293F cells [3] = assay: Transient gene expression in HEK293F cells: IgG concentration / titer (turbidimetric test); format: cell-based, human; conditions: 2 ng/mL, none=100, N=3
Description: as §2, §3, §4, §5, §6
as §7, with “g). The supernatant was transferred into a new cup and subjected to Cobas Integra 400 plus (Roche) analysis. With comparison to internal standard the absolute concentration was calculated.” for “g).”

| Molecule | cytotoxicity (HEK293F cells [1]; 3 mM) | toxicity (remark in productivity cell) (HEK293F cells [1]; employed concentration 3 mM) | TGE enhancement (HEK293F cells [2]; 2 mM, in words) | activity at 2000 µM (HEK293F cells [2]; Homo sapiens, HEK293F, employed concentration 2 mM, none=100, N=2, FIG. 4, read-out: relative cell specific productivity) | activity at 3000 µM (HEK293F cells [2]; Homo sapiens, HEK293F, employed concentration 3 mM, none=100, N=2, FIG. 4, read-out: relative cell specific productivity) | HDAC inhibitory activity (HDAC) | toxicity (HEK293F cells [1]; compared amongst NFκB activators) | relative cell specific productivity (HEK293F cells [2]; 2 ng/mL, none=100, N=3, FIG. 6A) | relative cell specific productivity (HEK293F cells [2]; 2 ng/mL, none=100, N=3, FIG. 8A) | specific productivity after 96 hours (HEK293F cells [2]; 2 ng/mL, single treatment, none 2.01, N=3) | relative cell specific productivity (HEK293F cells [2]; 2 ng/mL, single treatment, none=100, N=3) | relative cell specific productivity (HEK293F cells [2]; 10 ng/mL, none=100, N=2, FIG. 5) | TGE enhancement after BAY11-7082 treatment compared to the corresponding single treatment (HEK293F cells [2]; BAY11-7082 added 24 hours after stimulation) | relative IgG concentration (HEK293F cells [3]; FIG. 6B) | relative IgG concentration (HEK293F cells [3]; FIG. 8B) |
| --- | --- | --- | --- | --- | --- | --- | --- | --- | --- | --- | --- | --- | --- | --- | --- |
| CCCC(CCC)C(N)=O [valpromide] | cytotoxic | toxic | Weak TGE enhancement | 155% | 0% | very weak to no HDAC inhibitory activity | – | – | – | – | – | – | – | – | – |
| B1 | – | – | – | – | – | – | mildest toxicity | 135% | 135% | 2.27 pg/cell/day | 134% | 154% | significantly reduced | 133% | 128% |
